Test results taken from publication PMC5376648, “Cell-free reconstitution reveals centriole cartwheel assembly mechanisms” (Nature Communications, 2017).

B1: His-Stag-CrSAS-6_NL(1-503) (domain or fragment, Chlamydomonas reinhardtii, UniProt A9CQL4 1-503, looked up)
chain: MPLLLDDGDPKAQTGFDLSTATTLFWRPVPVHVKQQDREDVLEELTFRILTGVAKQNHNLRILRIHISSDSDLFFLHTLEVSEEDFQSLKNDQGILVDFASFPGKIISLLEKCILAQPGDSPRFQAVLTIRGGESVFKIVEINDFKQLPHITLAFRPGNDSVVKQFLAFRLSEVKGTCHDLSDDLSRTRDDRDSMVAQLAQCRQQLAQLREQYDKHLLEVQAQAKTQQASAHEERIREKSQLKDQFEKERGEMEGRYRDQIAALNTRLGELDTENRKLREVKYELDTKVSELSHKLGSSEGSNRSLEEETARLRSLNQQLSSSKHELEIQLNEAKAKVLALDEKAQSQGDVIEQQRGRLRDMEAALRQTEQRCADLRDTLASAEGRAKEAQAEVLKGNQAIEKLTNDLRLAKEKTKRKAAIILRQEEELQEREQSLANATRDVGVLGQQAESLRKDVASLHSENDSLRSKLEDSKQQLQSNEQMIRWLNQQVTEAQLHASGAT
notes: CrSAS-6 (Bld12p) of Chlamydomonas reinhardtii, residues 1-503; C-terminal truncation that keeps the N-terminal domain and the entire coiled coil; This form was used for cryo-EM and cryo-ET; source: E. coli BL21(DE3), purified (Ni-NTA, size exclusion chromatography)
B2: CrSAS-6_NL(1-503), 6xHis tag cleaved (domain or fragment, Chlamydomonas reinhardtii, UniProt A9CQL4 1-503, looked up)
chain: B1 chain
notes: CrSAS-6 (Bld12p) of Chlamydomonas reinhardtii, residues 1-503; This form was used for negative staining EM; also called 6xHis-CrSAS-6_NL(1-503) (before cleavage)
B3: full-length CrSAS-6 (HisCrSAS-6_FL) (natural protein, Chlamydomonas reinhardtii, UniProt A9CQL4 1-728, looked up)
chain: MPLLLDDGDPKAQTGFDLSTATTLFWRPVPVHVKQQDREDVLEELTFRILTGVAKQNHNLRILRIHISSDSDLFFLHTLEVSEEDFQSLKNDQGILVDFASFPGKIISLLEKCILAQPGDSPRFQAVLTIRGGESVFKIVEINDFKQLPHITLAFRPGNDSVVKQFLAFRLSEVKGTCHDLSDDLSRTRDDRDSMVAQLAQCRQQLAQLREQYDKHLLEVQAQAKTQQASAHEERIREKSQLKDQFEKERGEMEGRYRDQIAALNTRLGELDTENRKLREVKYELDTKVSELSHKLGSSEGSNRSLEEETARLRSLNQQLSSSKHELEIQLNEAKAKVLALDEKAQSQGDVIEQQRGRLRDMEAALRQTEQRCADLRDTLASAEGRAKEAQAEVLKGNQAIEKLTNDLRLAKEKTKRKAAIILRQEEELQEREQSLANATRDVGVLGQQAESLRKDVASLHSENDSLRSKLEDSKQQLQSNEQMIRWLNQQVTEAQLHASGATVAGSRYAFRPSAALPGSMPPPSVAATPAVGLLAAPGPSTAYKPGGTTSRYASTLGVTGLSSGLSGAGATSVGAAVAGGSYGAGGDSSYRPGVGGAYASSGGAGGFGGSVGGGGQVGGSGSAIGAATGAGSALGTYRSSYAASTHPSPGGVTAGMGSTLTTPAVNRYAAGSYSSVSSSLSFGGGLGAARAVDATPAASKYGVGFSNAAMGVVGTVGGAGGTDAQRA
notes: SAS-6 protein Bld12p (CrSAS-6) of Chlamydomonas reinhardtii, full length; A 6xHis tag stands between the Prescission site and CrSAS-6 and remains after cleavage; also called Bld12p; GST-HisCrSAS-6_FL (before cleavage); source: E. coli BL21(DE3), purified (glutathione agarose beads, eluted with Prescission Protease to remove GST); not shown: GST, N-terminal, cleaved; His6, N-terminal, kept

Key:
[1] = target: the molecule itself; assay: cryo-EM and cryo-electron tomography of assemblies formed in a cell-free assay; soluble protein alone (CrSAS-6_FL 10 uM or His-Stag-CrSAS-6_NL 20 uM in 20 mM Tris pH 7.5, 150 mM NaCl) dialysed >16 h against 10 mM K-PIPES pH 7.2; structures formed in solution vitrified and imaged
[2] = target: the molecule itself; assay: negative staining EM of assemblies; CrSAS-6_NL diluted in 10 mM K-PIPES pH 7.0 to 3 ug/ml, deposited on carbon-coated grids, stained with 2% uranyl acetate

Protein	binding result [1]	binding result [2]
B1	binds	–
B2	–	binds
B3	binds	–
